One experiment has as its target T1, recombinant GFP–N-Myc (UniProt P04198 1-464).
T1 chain: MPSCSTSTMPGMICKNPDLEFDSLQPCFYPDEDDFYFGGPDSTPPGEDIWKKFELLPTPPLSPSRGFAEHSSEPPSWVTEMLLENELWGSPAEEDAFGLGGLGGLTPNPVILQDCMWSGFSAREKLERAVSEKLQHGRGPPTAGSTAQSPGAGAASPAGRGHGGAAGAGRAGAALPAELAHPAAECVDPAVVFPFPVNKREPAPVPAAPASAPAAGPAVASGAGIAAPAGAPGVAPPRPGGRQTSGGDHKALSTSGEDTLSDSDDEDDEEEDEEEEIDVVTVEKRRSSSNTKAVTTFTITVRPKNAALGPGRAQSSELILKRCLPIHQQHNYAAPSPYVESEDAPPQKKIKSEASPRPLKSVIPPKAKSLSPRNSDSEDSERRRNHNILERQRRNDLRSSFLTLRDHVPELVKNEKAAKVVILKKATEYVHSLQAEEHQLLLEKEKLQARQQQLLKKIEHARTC
Nature of the experiment: MST.

For another experiment, the target named is recombinant GFP–C-Myc (UniProt P01106 1-454). The experiment is described as follows: MST.
recombinant GFP–C-Myc, sequence (P01106 whole entry): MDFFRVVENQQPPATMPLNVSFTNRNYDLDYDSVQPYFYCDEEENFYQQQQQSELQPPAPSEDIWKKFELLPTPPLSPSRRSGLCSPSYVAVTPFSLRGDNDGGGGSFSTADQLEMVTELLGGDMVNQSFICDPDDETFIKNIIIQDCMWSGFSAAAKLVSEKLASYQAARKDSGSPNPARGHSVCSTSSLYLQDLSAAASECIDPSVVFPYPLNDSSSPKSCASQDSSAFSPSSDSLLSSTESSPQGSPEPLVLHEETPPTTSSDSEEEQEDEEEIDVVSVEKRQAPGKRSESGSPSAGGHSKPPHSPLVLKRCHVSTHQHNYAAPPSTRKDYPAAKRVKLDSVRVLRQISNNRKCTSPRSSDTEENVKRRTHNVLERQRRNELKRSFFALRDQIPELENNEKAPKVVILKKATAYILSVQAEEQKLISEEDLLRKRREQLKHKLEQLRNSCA

B1: KLHL37-His recombinant protein (natural protein)
chain: MSVSVHENRKSRASSGSINIYLFHKSSYADSVLTHLNLLRQQRLFTDVLLHAGNRTFPCHRAVLAACSRYFEAMFSGGLKESQDSEVNFDNSIHPEVLELLLDYAYSSRVIINEENAESLLEAGDMLEFQDIRDACAEFLEKNLHPTNCLGMLLLSDAHQCTKLYELSWRMCLSNFQTIRKNEDFLQLPQDMVVQLLSSEELETEDERLVYESAINWISYDLKKRYCYLPELLQTVRLALLPAIYLMENVAMEELITKQRKSKEIVEEAIRCKLKILQNDGVVTSLCARPRKTGHALFLLGGQTFMCDKLYLVDQKAKEIIPKADIPSPRKEFSACAIGCKVYITGGRGSENGVSKDVWVYDTLHEEWSKAAPMLVARFGHGSAELKHCLYVVGGHTAATGCLPASPSVSLKQVEHYDPTINKWTMVAPLREGVSNAAVVSAKLKLFAFGGTSVSHDKLPKVQCYDQCENRWTVPATCPQPWRYTAAAVLGNQIFIMGGDTEFSACSAYKFNSETYQWTKVGDVTAKRMSCHAVASGNKLYVVGGYFGIQRCKTLDCYDPTLDVWNSITTVPYSLIPTAFVSTWKHLPS
B1: the figures for the EC50 with recombinant GFP–N-Myc and with recombinant GFP–C-Myc were 0.0983 nM and 2.54 nM, respectively.

(Values after PMC12259267 (2025).)
